Consider ten sequences from a protein production outcome set (Wang et al. 2014).

The nature of this data set: label from the status in PepcDB records.
As to “MNSVRKIKCLFLIFLDILFINLGYFISLCFEYGKEMKIEYFFNIRNLIILAIFTNILIFCFFNLYKNIWHMAGISECIRCLIASSISSILLILYKFIFNMDVTIVFLINSSILICMFSLLTRMSIRIFRKIYFPYKLESNLRKNVLIVGAGHCGRIVIDEMNKNNKFNPIGIVDDDLNKKGTFLNGVKVLGNRDDIEKICKRIKVDIILIAISNLSSNDKDEIIKRCENTKIKVKIIPSIYDLIDGNVKLTNIRDIDLRDLLGRDETRLDKEEVNNYIKEKIVIVTGGGGSIGSELCRQIAVFNPKKLIILDIYENYAYELENELKRNFKNLDLEVIIASIRDKSRLKKIFDKYKPDLIFHAAAHKHVPLMENNPEEAIKNNVLGTLNVAECADEFNLEKFVFISTDKAVNPTNIMGATKRIGEMIIQAMNEVSKTDFVAVRFGNVLGSNGSVIPLFIEQIKNGGPVTLTHKDITRYFMLIPEAAQLVLQAGAYAKGGEIFVLDMGKPVKIYDLTEKLIRLSGFEPNKDIQIKIVGLRPGEKLYEELILSEEELKKTKNEKIFILSPFKFDIKEIKKKIVELLNVALNEDKKAIKEKLKEIVKNYRDLEQIDFI”, the protein production entry is reported as “failed”.
Turning to “MNTFAIPAPLIDAWRTTLETLRNLTGLGFGLLTRENGGELEIMVTAGELPSPFAEGYCLKGGPEGPLCAVVHTLARSLLIPDTTADARWASNPAVKAGVRAYFGLPLRLPTGALFGTLCLGSMSPVTGHDAVLKPLHCFATLVEQHIALLSTNALLRSQLDALPGASFASDPHGQMLFASNRCGSLLDLHPADIPGSDVDTVFNRIAALCESPEECHAILRRSFTLGGPSNGKLAFDDGRTIRWQARRLREDAGSVLGCTWFLEDATAELQARAGLTRSEALFRGLFNNAAVGIVLLDRQGFVVRSNVACARMLGTSPEQMHGLSFRAVLPPEDADQHLEEMQSLAEGETDELHGCWEMLHRNGSRLRVDLHGARLPGSGEEVVMLVGVDVTEQWRTERALAESERRYRALFDNAQAGIFRTSLADGTFLEANLRMAQMFGYDDVATFMAEYRAAENYVDPADRALMLDRLRTSGSFATMETHMRRRDGTTTWFLYSGTLDGDTIIGVANEISEMRATQEALRRSEERYRALFDNAADGLLLYEADGTLIDVNETIARRLGESREAIVGRNVASIVEPEVLERVRPRLAEILETGHASFESVHRTAMGPVNVEVHARRIEFEGRFVVLSSARDITERKNLEAALLREATTDPLTGGRNRRQFFVDANREFARALRHDSGLAVLMLDIDHFKNVNDLYGHQAGDEVLRAFAACCVEALRAYDVFGRLGGEEFAALLPAASPEEAMETAERLRKRVERRSVVYEGTALQCTVSVGVTSLAAADLGFDDMLRRADRALYAAKDHGRNRSEMAPMPMVPAEIPPPRKPFRE”, the protein production result is “failed”.
The result for “MNTKIITILFIAFLSVLFFTGCIEEKISSQEHGSTKGISSSNDENTENRTVTDSLGRQVQVPLMVERVADTWMGHNEVLAMLGADDRLVATMFSPQSRPWMYKVCPTFNDAVTLSPTYDIEELLATKPDVVFMSKSDKNLEKISNLGIPAVQVSFTDFDSMKKCISDTANVLGDEEALERAQQYNTYLDSKLESVRNTSSQIPDENRPKVLHVVSLSPLCVDGGGNIISDWIEAAGGVNAAEEVKGGIMQEVSMEQILKWNPDVIILSVNAKSREKEQIMNSDQWKKVKAIQDNRVFLNPEGAFIWSRAGAEEALQIQWAAKTINPDKFQFIDINNETKWFYKTFFEYELTDEEVQKILNAEAPN” reads “failed”; that for “MNTKKESALSFPSAGIESFGERLKELMGDESLRAFANAIDTSEGGVRKWFTQSTMPSFDKMVRIARRYNVNLEWLCTGEGPKFPGETAAYESVICKTEEFSEEYALIDGYHTQVSTGHGAQWDNERVRRKLAFRSKWLRYRGLQPENLRVVFAKGDSMEPTIHSGDSILVDITDANLSDGSIFVLRIGDDLFAKRVQVHIDGSITIISDNKEYREQRVPVAELGLLSVVGKVVWIGKDVK”, “failed”.
As for “MNTKLTKIISGLFVATAAFQTASAGNITDIKVSSLPNKQKIVKVSFDKEIVNPTGFVTSSPARIALDFEQTGISMDQQVLEYADPLLSKISAAQNSSRARLVLNLNKPGQYNTEVRGNKVWIFINESDDTVSAPARPAVKAAPAAPAKQQAAAPSTKSAVSVSKPFTPAKQQAAAPFTESVVSVSAPFSPAKQQAAASAKQQTAAPAKQQAATPAKQTNIDFRKDGKNAGIIELAALGFAGQPDISQQHDHIIVTLKNHTLPTTLQRSLDVADFKTPVQKVTLKRLNNDTQLIITTAGNWELVNKSAAPGYFTFQVLPKKQNLESGGVNNAPKTFTGRKISLDFQDVEIRTILQILAKESGMNIVASDSVNGKMTLSLKDVPWDQALDLVMQARNLDMRQQGNIVNIAPRDELLAKDKAFLQAEKDIADLGALYSQNFQLKYKNVEEFRSILRLDNADTTGNRNTLVSGRGSVLIDPATNTLIVTDTRSVIEKFRKLIDELDVPAQQVMIEARIVEAADGFSRDLGVKFGATGKKKLKNDTSAFGWGVNSGFGGDDKWGAETKINLPITAAANSISLVRAISSGALNLELSASESLSKTKTLANPRVLTQNRKEAKIESGYEIPFTVTSIANGGSSTNTELKKAVLGLTVTPNITPDGQIIMTVKINKDSPAQCASGNQTILCISTKNLNTQAMVENGGTLIVGGIYEEDNGNTLTKVPLLGDIPVIGNLFKTRGKKTDRRELLIFITPRIMGTAGNSLRY”, the protein production result is “failed”.
The entry for “MNTNVYENTDSETITPLNKRRILPVFLLVGLYAASTAAVMSVLPFYIREMGGSPLIIGIIIATEAFSQFCAAPLIGHLSDRVGRKRILIVTLAIAAISLLLLANAQCILFILLARTLFGISAGNLSAAAAYIADCTHVRNRRQAIGILTGCIGLGGIVGAGVSGWLSRISLGAPIYAAFILVLGAALVAIWGLKDPSTTSRTTDKIASFSARAILKMPVLRVLIIVMLCHFFAYGMYSSQLPVFLSDTFIWNGLPFGPKALSYLLMADGVINIFVQLFLLGWVSQYFSERKLIILIFALLCTGFLTAGIATTIPVLIFAIVCISIADALAKPTYLAALSVHVSPARQGIVIGTAQALIAIADFISPVLGGFVLGYALYGVWIGIAISVAIIGLVTAMIYLSKSSPLIAKPETE” is “failed”.
As for “MNTPHGPLEYSLNSPFKAKGRFGRLSFAAWSFVSTLAIIGMLLVISVVFGALASDSNAIQIFGSLLLIAIYVTFLVFSVIFIIRRLHDRNHNGWFAILFFIPIINLIFIIYLLCAKGDIETNRFGAPRATPSWERVMGWIYIVLMPIVVILGVSSDAMMAYQRYTLHSKQVSDVSQMIQPVSTHNNRLS”, the protein production result was “failed”.
As to “MNTQEPAGLFTAVYEGDENTVVRLLRAGTAADARDEDGQTALYLAAVSNEPGIVRLLLAAGADPDRLSADADSPLCGAACGGHAEVVRALLAAGATADLEEEFGFRALTWAVQRGQVEILTELLAAGAHPDRPGPTGEAPLVAAARRGSPGCVRALLAHGAGARSPALDEARRWPALDVEAELRAGLEQMYGSGHEMVTHRIPEDGGITVEVQLRTGERTMAGNDQQTGHAAIITLLEAALGIATPVPELADRALRCGDPANDDWTEAVSVLVRRAGGETFTAATAWSRSPDPLRRALGTEILRKLGR”, the protein production entry is given as “failed”.
The result for “MNTRAPAVEARQLIKTYPGDVTALSGMDITVEPGTVFGLLGPNGAGKSTTVKILTTLARPDSGTATVAGHDVLRHPDRVRRAIGVVAQSSGADPVATGRENLRLQGRLHGLKGAGLSRRVAELLDRFKLADAAGRQVKGYSGGMRRRLDVALGLVHRPEVLFLDEPTTGLDPEARTAMWDEIARLAGDEGLTILLTTHYLEEADRLAERIAIVDRGRVVVEGTPDGLKGELRGDAIHLELREAVGQAGRTLLKGSLGGVPGVHEVLFDDAQGRRVSVRADDGAAAMPALLGALERAGVGVAAATVARPSLDDVYLRHAGRRYSEAEAEGADSLALAGATGGTRLEHHHHHH” reads “failed”; that for “MNTRLNEPDLPGDIDIKDLDPLVLQDLKVLSKDNADAVAKHMIMAATWLADDPQLALRHARAAKDRAGRVSVVRETNGIAAYHAGEWKEALSELRAARRMSGGPGLIAVMADCERGLGRPEKAIELAREEDLSSLDQDNLIELAIVVAGARHDLGQHDSAIVELQKVNPSLKSTGFTHSRLSYAYADALVLAGRGDEAREWFQHAATLDEDGYLDAEERIEQLDNGNN”, “failed”.
